Experiments:
human 4-1BB (human) [1] = target: human 4-1BB (human) (UniProt Q07011); assay: cell-based or functional assay
human 4-1BB (human) [2] = target: human 4-1BB (human) (UniProt Q07011); assay: flow cytometry on CHO-K1 cells expressing 4-1BB

Chain of human 4-1BB (human) (Q07011 24-255): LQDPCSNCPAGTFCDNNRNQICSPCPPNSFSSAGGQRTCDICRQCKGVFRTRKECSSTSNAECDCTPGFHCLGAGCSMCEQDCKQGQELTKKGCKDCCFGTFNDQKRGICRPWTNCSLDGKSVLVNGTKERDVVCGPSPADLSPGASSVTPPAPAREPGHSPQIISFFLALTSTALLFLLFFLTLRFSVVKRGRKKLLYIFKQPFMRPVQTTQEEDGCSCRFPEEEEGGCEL

reporter gene assay (NFkB luciferase), EC50 (human 4-1BB (human) [1]): 0.33 nM
reporter gene assay (NFkB luciferase), Top (RLU) (human 4-1BB (human) [1]): 1.09e+06 RLU
EC50 (human 4-1BB (human) [2]): 0.123 nM
Top (MFI) (human 4-1BB (human) [2]): 1120 MFI
Substance: WBP342-BMK3.hIgG4 (antibody)

Reference: patent publication US20240317872A1
